For one assay, the target named is T1, recombinant human FLT3 (Homo sapiens, UniProt P36888).
T1 construct: purchased Sino Biological 10445-H08H
T1 sequence (P36888 27-541 limits assumed): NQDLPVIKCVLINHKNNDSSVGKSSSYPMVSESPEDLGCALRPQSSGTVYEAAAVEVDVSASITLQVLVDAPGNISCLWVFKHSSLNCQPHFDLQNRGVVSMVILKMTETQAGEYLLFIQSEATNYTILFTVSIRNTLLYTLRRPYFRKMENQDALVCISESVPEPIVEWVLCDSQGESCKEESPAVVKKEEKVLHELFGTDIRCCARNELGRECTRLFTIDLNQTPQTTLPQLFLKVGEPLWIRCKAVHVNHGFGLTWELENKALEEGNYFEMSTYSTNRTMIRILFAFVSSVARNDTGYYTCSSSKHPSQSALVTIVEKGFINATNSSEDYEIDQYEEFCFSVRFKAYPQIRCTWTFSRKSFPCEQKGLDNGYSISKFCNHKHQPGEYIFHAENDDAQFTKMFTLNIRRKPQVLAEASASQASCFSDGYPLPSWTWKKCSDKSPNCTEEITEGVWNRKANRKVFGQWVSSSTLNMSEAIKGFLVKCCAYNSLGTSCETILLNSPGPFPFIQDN
The assay is described as follows: ELISA affinity to recombinant human FLT3. The class given is binding. Conditions: chimeric Ab clones. An excerpt: (§1) FIG. 1: Evaluation of epitope specificity and internalization capability of anti-FLT3 monoclonal antibodies. (A) Affinity of seven anti-FLT3 monoclonal antibody (mab) clones to recombinant human FLT3 measured in enzyme-linked immunosorbent assay (ELISA) normalized to the binding of the antibodies to BSA control. […] (B) Schematic FLT3 receptor. Black arrows indicate common mutations and blue arrows indicate the three identified epitopes of seven anti-FLT3 antibodies analyzed in linear epitope mapping by PEPperPRINT. Figure was created with BioRender.com. (C) Binding and temperature induced internalization of anti-FLT3 antibodies in Ba/F3 cells expressing human wildtype FLT3. Internalization was induced by incubation for 30 min at 37° C. (grey) compared to 4° C. (black). Remaining surface-bound antibody was detected in flow cytometry. MFI was normalized to control human IgG1 binding. MFI=mean fluorescence intensity. […] (D) Cell surface binding of 20D9 mab or control human IgG1 antibody to Ba/F3 cells stably expressing pMIY (Ba/F3-pMIY) empty vector (ev), human wildtype (hFLT3 wt) or ITD mutant human FLT3 (hFLT3ITD) was measured in flow cytometry. Mean±s.d. of n=3. (E) Temperature induced internalization of 4B12 mab in MOLM-13 (FLT3 positive) cells after 30 min incubation at 37° C. compared to 4° C. and HL-60 (FLT3 negative) after 37° C. incubation assessed in immunofluorescence staining. Red=FLT3 staining by 4B12, Green=membrane staining by Vybrant DiO, Blue=nuclear staining by DAPI. Scale bar 5 μm. Representative pictures are shown. (F) Cell surface binding of 20D9 mab or control hIgG1 antibody to Ba/F3-pMIY ev, hFLT3 wt, murine (mFLT3 wt) or cynomolgues monkey FLT3 (cynoFLT3 wt) was measured in flow cytometry. Mean±s.d. of n=3. (G) Cell surface binding of 20D9 mab or control hIgG1 antibody to Ba/F3-PMIY ev, hFLT3 wt or epitope mutant FLT3 (hFLT3/S50P/P54R) measured in flow cytometry. Mean±s.d. of n=3. (H) Cell surface binding of 20D9 mab or control hIgG1 antibody to Ba/F3-PMIY ev, hFLT3 wt or human CD64 (hCD64) measured in flow cytometry. Mean±s.d. of n=3.
Maxisorp plates were coated with human recombinant FLT3 protein (10445-H08H, Sino Biological). Chimeric (20D9) or humanized anti-FLT3 monoclonal antibodies (in house) and secondary alkaline phosphatase conjugated rabbit anti-human IgG antibody (309-055-008, Jackson Immunoresearch) were used. For detection, Attophos Fluorescent Substrate System (S1000, Promega) was applied. The fluorescence was read with excitation of 405 nm and emission at 500-550 nm. The calculation of the dissociation constant KD was performed using GraphPad Prism version 9.4.0.
(In general: An ELISA detects its analyte on a solid surface through an enzyme-linked reagent.)

In the next assay the target is T2, hFLT3/S50P/P54R (Homo sapiens, UniProt P36888, P54R/S50P).
T2 construct: expressed in transfected cells; host or cells: Ba/F3 cells, retrovirally transduced with MSCV-IRES-YFP (pMIY) vector
T2 sequence (P36888 27-993 S50P/P54R): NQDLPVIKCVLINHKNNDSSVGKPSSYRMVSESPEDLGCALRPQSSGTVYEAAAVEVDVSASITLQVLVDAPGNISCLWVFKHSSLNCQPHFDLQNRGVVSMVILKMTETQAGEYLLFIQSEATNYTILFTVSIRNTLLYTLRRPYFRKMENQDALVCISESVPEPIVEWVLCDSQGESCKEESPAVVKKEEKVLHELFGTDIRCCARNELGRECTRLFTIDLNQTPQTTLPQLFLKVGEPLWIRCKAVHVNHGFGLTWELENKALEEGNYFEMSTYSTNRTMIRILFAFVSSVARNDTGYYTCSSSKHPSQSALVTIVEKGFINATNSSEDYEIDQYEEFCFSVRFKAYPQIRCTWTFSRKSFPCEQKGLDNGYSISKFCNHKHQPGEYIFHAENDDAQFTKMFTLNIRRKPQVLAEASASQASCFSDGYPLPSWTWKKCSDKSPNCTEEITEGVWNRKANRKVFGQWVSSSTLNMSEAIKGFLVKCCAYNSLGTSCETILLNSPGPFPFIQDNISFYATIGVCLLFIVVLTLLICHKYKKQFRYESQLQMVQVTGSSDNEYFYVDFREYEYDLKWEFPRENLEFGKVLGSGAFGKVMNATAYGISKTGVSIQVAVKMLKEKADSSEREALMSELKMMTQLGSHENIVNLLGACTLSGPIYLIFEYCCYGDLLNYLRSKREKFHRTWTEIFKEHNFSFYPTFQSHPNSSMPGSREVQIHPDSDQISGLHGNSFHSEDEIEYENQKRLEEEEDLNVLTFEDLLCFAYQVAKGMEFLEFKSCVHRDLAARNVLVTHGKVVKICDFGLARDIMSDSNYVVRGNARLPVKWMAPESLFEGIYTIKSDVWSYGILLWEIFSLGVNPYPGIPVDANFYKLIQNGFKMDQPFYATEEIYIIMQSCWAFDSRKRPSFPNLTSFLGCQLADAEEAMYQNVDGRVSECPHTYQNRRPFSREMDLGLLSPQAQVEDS
The assay is described as follows: Cell surface binding to Ba/F3 epitope mutant FLT3, flow cytometry.
Source text: as §1, with “Internalization was induced by incubation for 30 min at 37° C. (grey) compared to 4° C. (black).” left out, “MFI was normalized to control human IgG1 binding.” left out, “Mean±s.d. of n=3.” left out, “Red=FLT3 staining by 4B12, Green=membrane staining by Vybrant DiO, Blue=nuclear staining by DAPI. Scale bar 5 μm. Representative pictures are shown. (F) Cell surface binding of 20D9 mab or control hIgG1 antibody to Ba/F3-pMIY ev, hFLT3 wt, murine (mFLT3 wt) or cynomolgues monkey FLT3 (cynoFLT3 wt) was measured in flow cytometry. Mean±s.d. of n=3.” left out, “Mean±s.d. of n=3. (H) Cell surface binding of 20D9 mab or control hIgG1 antibody to Ba/F3-PMIY ev, hFLT3 wt or human CD64 (hCD64) measured in flow cytometry. Mean±s.d. of n=3.” left out
For orientation: Flow cytometry measures light scatter and fluorescence of single cells or particles in a stream.

Assay [1] has as its system MOLM-13 (FLT3 positive) cells. The assay is described as follows: Temperature induced internalization in MOLM-13, flow cytometry. Type of assay: cell-based, human. Conditions: 30 min at 37° C. compared to 4° C. How it is done:
For antibody binding studies, cells were stained on ice with primary mouse, rat or human anti-FLT3 antibodies (in house) and secondary antibody Goat F(ab′)2 Anti-Human Ig-PE (2012-09), Goat Anti-Mouse IgG (H+L)-PE (1032-09) or Goat Anti-Rat IgG (H+L)-PE (3052-09) purchased from Southern Biotech. For internalization experiments, cells incubated with anti-FLT3 antibodies were washed and incubated for 30 min at 4° C. or 37° C. followed by staining with secondary antibody.

B1: 20D9: chimeric (rat variable regions, human IgG1) anti-FLT3 monoclonal antibody; VH SEQ ID NO: 5, VL SEQ ID NO: 6 (antibody, V domains shown)
VH: DVMLVESGGGLVQPGRSLKLSCVASGFTFNNYWMTWIRQAPGKGLEWIASITKTGGGTYYPDSVKGRFTISRDNAKSTLYLQMNSLRSEDTATYYCTTLQQLGVMDAWGQGASVTVSSA
VL: DVQMTQSPSVLSASVGDRITLNCKASQNINKELNWYQQKLGEAPKLLIYNTNNLQTGIPSRFSGSGSGTDYTLTISSLQPEDVATYFCFQHKSWPLTFGSGTKLEIKR
modifications: Clone 20D9, heavy chain variable region without a signal seqeunce; Clone 20D9, light chain variable region without a signal seqeunce
With B1, the “Affinity Kd” value with recombinant human FLT3 was determined as 0.02188 µg/mL. Also, the “Binding to human FLT3 with epitope region mutated to murine variant (S50P/P54R)” value with hFLT3/S50P/P54R is listed as “not able to bind”. For the same molecule, the “Internalization in MOLM-13” value in assay [1] is given as 64%.

B2: 4B12: chimeric anti-FLT3 antibody from rat; VH SEQ ID NO: 9, VL SEQ ID NO: 10 (antibody, V domains shown)
VH: QVQLQQSGPGLVQPSQTLSLTCTVSGFSLTSYNVNWVRQPPGKGLEWIGAMWRGGGTDYNPALKSRLSISRDTSKSQVFLKMNRLQTEDTAIYFCTRGFGDYWGQGVMVTVSSA
VL: DIQMTQTPLSLSVAIGQSASISCKSSQSLKYSDGKTYLNWVFQSPGQSPKRLIYQVSKLDSGVPDRFSGTGSETDFTLKISRVEAEDLGVYYCCQGSYSPSTFGAGTKLELKR
modifications: Clone 4B12, heavy chain variable region without a signal sequence; Clone 4B12, light chain variable region without a signal seqeunce
Consider B2, for which the “Affinity Kd” value in the assay with recombinant human FLT3 is 0.03191 µg/mL. Also, the “Internalization in MOLM-13” value in assay [1] is 58%.

The values above are taken from US20250049939A1, “NOVEL FLT3 ANTIBODIES AND ANTIBODY-DRUG-CONJUGATES BASED THEREON, THERAPEUTIC METHODS AND USES THEREOF IN COMBINATION WITH TYROSINE KINASE INHIBITORS” (TUBULIS GmbH, priority 2021, published 2025).
